{"source": "patent US20210317419", "target": "T1, D-proline reductase PrdA protein derived from Peptoclostridium difficile 630, with 6X histidine tags at both termini (H6-prdA-H6)", "T1 chain": "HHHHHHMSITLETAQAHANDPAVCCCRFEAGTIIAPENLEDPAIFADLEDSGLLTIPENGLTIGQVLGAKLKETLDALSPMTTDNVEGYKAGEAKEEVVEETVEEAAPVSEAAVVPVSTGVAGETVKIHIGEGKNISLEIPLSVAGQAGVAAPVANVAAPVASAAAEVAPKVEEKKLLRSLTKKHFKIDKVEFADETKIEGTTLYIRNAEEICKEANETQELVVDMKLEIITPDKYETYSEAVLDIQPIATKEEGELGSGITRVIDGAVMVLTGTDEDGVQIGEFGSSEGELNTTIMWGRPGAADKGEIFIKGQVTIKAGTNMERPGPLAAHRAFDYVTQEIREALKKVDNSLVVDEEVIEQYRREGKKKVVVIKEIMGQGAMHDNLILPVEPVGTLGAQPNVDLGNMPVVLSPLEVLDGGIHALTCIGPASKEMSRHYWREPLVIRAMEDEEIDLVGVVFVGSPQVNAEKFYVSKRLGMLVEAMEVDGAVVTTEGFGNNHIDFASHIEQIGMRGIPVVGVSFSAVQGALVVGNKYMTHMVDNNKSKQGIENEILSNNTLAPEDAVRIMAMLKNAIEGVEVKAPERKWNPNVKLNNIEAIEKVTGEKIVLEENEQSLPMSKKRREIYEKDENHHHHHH", "data": [{"protein": "D-proline reductase PrdB protein derived from Peptoclostridium difficile 630, with a 6X histidine tag at the carboxyl terminus (prdB-H6) (protein) MSLTTVQGLQSEIFVPITPPPVWTPVTKELKDMTIALATAAGVHLKSDKRFNLAGDTTFRAIPNTATVDEMMVSHGGYDNGDVNKDINCMFPIDRLHELAAEGFIKGVAPMHYAFMGGGGNQHVFTEETGPAIAAKLKEEGVDGVVMTAGGTCHRTAVIVQRAIEEAGIPTIIIAALPPVVRQNGTPRAVAPLVPMGANAGEPHNIEMQTHILRDTLEQLVAIPSAGKIVPLPYEYKAHVHHHHHH", "values": [{"measurement": "self-cleavage of PrdA protein (Western blot of lysates of co-expressing E. coli)", "value": "PrdH protein and PrdB protein must exist at the same time to induce self-cleavage of PrdA protein"}]}]}
